Numbering of substitutions follows the chain as printed. Names may count otherwise.
B1: Tm6PGDH (6-phosphogluconate dehydrogenase from Thermotoga maritima) (Thermotoga maritima MSB8) (protein)
chain: MKSHIGLIGLAVMGQNLALNIARKGYKVSVYNRTAQRTEEFVKNRVTNEEIEPHYDIESFVKSLERPRKIILMVKAGKPVDDTISQLLPHLEPGDLIIDGGNSHYMDTERRFKELSEKGILFLGMGVSGGEYGALHGPSLMPGGSREAYNLVEEILLEIAAKTEDGPCCTYVGERSAGHFVKMVHNGIEYAIMQAIAEVYHIMRDVLSLSSEEMSSIFEEWNRGELSSFLVEITYKILRKKDEETGKPMVDVILDKAEQKGTGKWTSQAALDLGIPTPSINLAVVERVISHFKDIRTRLSKLYNKRRSATQGSEEFLRDLRNSLFFAMFMAFSQGMWLIAEASKEFGYGVSLSEVLRIWKGGCIIRAKLIDTLRRYISNENAYLLENEEVMNLLKGKIDSLKNILKASIENEIPVPVLSSSYNYFMSLTEERLPANLIQAQRDFFGAHTFERVDREGVFHINWEEGEIG
notes: full length in pET20b, C-terminal His tag (LEHHHHHH from primer), E. coli BL21(DE3), Ni-NTA; primers encode N-terminus MKSHIGLI and C-terminus NWEEGEIG before the tag
B2: Tm6PGDH (6-phosphogluconate dehydrogenase from Thermotoga maritima) (Thermotoga maritima MSB8; N32E/R33I/T34I) (protein)
chain: B1 chain with N32E, R33I, T34I
notes: as for B1
B3: Tm6PGDH (6-phosphogluconate dehydrogenase from Thermotoga maritima) (Thermotoga maritima MSB8; N32D/R33L/T34S) (protein)
chain: B1 chain with N32D, R33L, T34S
notes: as for B1
B4: Tm6PGDH (6-phosphogluconate dehydrogenase from Thermotoga maritima) (Thermotoga maritima MSB8; N32D) (protein)
chain: B1 chain with N32D
notes: as for B1
B5: Tm6PGDH (6-phosphogluconate dehydrogenase from Thermotoga maritima) (Thermotoga maritima MSB8; N32D/R33I/T34I) (protein)
chain: B1 chain with N32D, R33I, T34I
notes: as for B1

Molecular target: T1, Tm6PGDH (6-phosphogluconate dehydrogenase from Thermotoga maritima) (Thermotoga maritima, UniProt Q9WYR9, N32D/R33L/T34S)
T1 construct: gene TM_0438; full length in pET20b, C-terminal His tag (LEHHHHHH from primer), E. coli BL21(DE3), Ni-NTA; primers encode N-terminus MKSHIGLI and C-terminus NWEEGEIG before the tag
Assay: NAD(P)H formation at […] nm, Michaelis-Menten fit
Type: biochemical
Settings: 2 mM 6-phosphogluconate, 5 mM MgCl2, 0.5 mM MnCl2, 100 mM HEPES pH 7.5, 70 °C; apparent Km; read-out: Km (mM) / NADP^+
From the text: (§1) (6-phosphogluconate dehydrogenase from Thermotoga maritima)

T1 sequence (Q9WYR9 entry or part of it N32D/R33L/T34S): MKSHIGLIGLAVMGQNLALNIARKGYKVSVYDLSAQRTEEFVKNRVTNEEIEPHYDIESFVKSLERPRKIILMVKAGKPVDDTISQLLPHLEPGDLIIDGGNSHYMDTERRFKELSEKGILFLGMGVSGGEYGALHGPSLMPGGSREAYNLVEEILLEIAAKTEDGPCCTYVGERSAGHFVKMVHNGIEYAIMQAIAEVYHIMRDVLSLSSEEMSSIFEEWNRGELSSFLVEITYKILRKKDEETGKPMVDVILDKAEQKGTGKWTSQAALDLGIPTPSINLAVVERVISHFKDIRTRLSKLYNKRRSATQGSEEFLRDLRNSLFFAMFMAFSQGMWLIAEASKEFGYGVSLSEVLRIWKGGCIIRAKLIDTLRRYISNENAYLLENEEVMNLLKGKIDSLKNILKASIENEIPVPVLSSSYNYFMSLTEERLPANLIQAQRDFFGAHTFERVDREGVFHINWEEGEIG

Molecule | Km [mM]
NC(=O)c1ccc[n+]([C@@H]2O[C@H](COP(=O)(O)OP(=O)(O)OC[C@H]3O[C@@H](n4cnc5c(N)ncnc54)[C@H](OP(=O)(O)O)[C@@H]3O)[C@@H](O)[C@H]2O)c1 [NADP^+] | > 100

Substrate: NC(=O)c1ccc[n+]([C@@H]2O[C@H](COP(=O)(O)OP(=O)(O)OC[C@H]3O[C@@H](n4cnc5c(N)ncnc54)[C@H](O)[C@@H]3O)[C@@H](O)[C@H]2O)c1
Assay: purified protein
Type: biochemical, Thermotoga maritima
Settings: 2 mM 6-phosphogluconate, 5 mM MgCl2, 0.5 mM MnCl2, 100 mM HEPES pH 7.5, 70 °C, apparent Km
From the text: as §1

Molecule | Km [mM] | kcat [s⁻¹] | kcat/Km [M⁻¹ s⁻¹]
B1 | 4.3 ± 0.4 | 23.3 ± 2 | 5400
B2 | 2.5 ± 0.2 | 47.9 ± 2.2 | 19200
B3 | 7.5 ± 0.8 | 25.4 ± 1.4 | 3400
B4 | 4.0 ± 0.1 | 29.3 ± 1.2 | 7300
B5 | 3.9 ± 0.4 | 32.2 ± 2.2 | 8300

Substrate: NC(=O)c1ccc[n+]([C@@H]2O[C@H](COP(=O)(O)OP(=O)(O)OC[C@H]3O[C@@H](n4cnc5c(N)ncnc54)[C@H](OP(=O)(O)O)[C@@H]3O)[C@@H](O)[C@H]2O)c1
Assay: purified protein
Type: biochemical, Thermotoga maritima
Settings: 2 mM 6-phosphogluconate, 5 mM MgCl2, 0.5 mM MnCl2, 100 mM HEPES pH 7.5, 70 °C, apparent Km
From the text: as §1

Molecule | Km [mM] | kcat [s⁻¹] | kcat/Km [M⁻¹ s⁻¹]
B1 | 0.005 ± 0.0004 | 17.6 ± 0.7 | 3.52e+06
B2 | 79 ± 20 | 15.9 ± 7.9 | 200
B4 | 2.3 ± 0.1 | 16.7 ± 1 | 7300
B5 | 70 ± 17 | 15.9 ± 5.8 | 200

Reference: article PMC5090862, “Coenzyme Engineering of a Hyperthermophilic 6-Phosphogluconate Dehydrogenase from NADP^+ to NAD^+ with Its Application to Biobatteries” (Scientific Reports, 2016)
